Experimental findings from the DeepSol protein solubility set are described below.

A short description of the data set: soluble on expression in E. coli; label from the status in PepcDB or PDB records.
Take “MAAAALREQLNALLSSMFASGLVDEQFQQLQMLQEDGGTPGFVAEVVTLFCDDADRIISELAALLDQPIVDFDKVDAYVHQLKGSSASVGAQKVKFTCMQFRQLCQDKNRDGCIMALAVVRNEFYDLRNKFQTMLQLEQQIQAQQ”: the “soluble on expression in E. coli” value is given as “soluble”. Next, “MFPYYQRQCPTGSVPYTIKAGDTLAAIARIYGTTVQDIINANPDIDPYYLRVGQQICIPLTMQIYPSCPTTNYYVVRPEDTLESIAAYFNITPQQLLYSNYGIDPTDLYVDQILCIPVAPPPVTVNVNVAERTLTVYRDGRIYRTYRIALENPASPIPRGTFTVLNKQVDPGVEMGARWIGLSEAGFGIHGTNTPEFIDVVSTGNSIVMSNEDVSELFNLVPVGTIVTIS”: “soluble”; “MSLYKKYLLLGVSLCMLNACNESKSVSLEGSLDGIQADSIYLYQVDNEHYGSVKLIKSIAVTDGRFAYPTDSIQAGLYCFSLQNMERGEYLQQYANLFLEPKSMQLTLGKDKYDQLSLHATGSALQEQYEALQEAKYVAGNRMVLDSLDHMFYEAREKGDREEMERIREVSSPYYESASEQTRKLINGEIAKNKGSYFGLYLYYTYRFQNHTFNTVEEIDEARNFIGSFDEASRRSGIYVKMQEGLDKFARCATGSVAPAITGIDLKGNSVSLNDFKGKYVLVDFWFAGCSWCRKETPYLLKTYNAFKDKGFTIYGVSTDRREEDWKKAIEEDKSYWNQVLLQKDDVKDVLESYCIVGFPHIILVDPEGKIVAKELRGDDLYNTVEKFVNGAKEGHHHHHH”: “soluble”. As for “NSYVFDLPHNQHKLTKFAHKGILFNSVHLERDGTLKFPQLKQSKQKPAVSSELKTAIKRIKAGYKKVKPNYKKRQKQQIAELFAKRKQRRSWKNF”, the “soluble on expression in E. coli” value was “not soluble”. On to “DVFVYGSFQEPSVVNLILECSPVMVPAQLHGYHVYRLKGRLHACISPSENGLINGKILTGLTDSQLENLDMIEGSEYVRKTVEVVLTDTSEKKQVETYVWANKDDPNLYGEWDFEEWRRLHMDKFIEASTKFIEWKKNPDG”, for which the “soluble on expression in E. coli” value was “not soluble”. As for “MSLNNTKQPVVILVGPTAVGKTNLSIQLAKSLNAEIISGDSMQIYKGMDIGTAKITEQEMEGVPHHLIDILDPQDSFSTADYQSLVRNKISEIANRGKLPMIDGGTGLYIQSELYDYTFTEEANDPVFRESMQMAAEREGADFLHAKLAAADPEAAAAIHPNNTRRVIRALEILHTSGKTMSQHLKEQKRELLYNAVLIGLTMDRDTLYERINQRVDLMMQSGLLPEVKRLYDKNVRDCQSIQAIGYKELYAYFDGFVTLSDAVEQLKQNSRRYAKRQLTWFRNKMQVTWFDMTPPVDMELKKKEIFTHIAGKLELEGHHHHHH”, the “soluble on expression in E. coli” value is “soluble”. For the sequence “MSLTSVVFLNPGNSTETFWVSYSQFMQAAARDLGLDLRILYAERDPQNTLQQARELFQGRDKPDYLMLVNEQYVAPQILRLSQGSGIKLFIVNSPLTLDQRELIGQSRQNYSDWIGSMVGDDEEAGYRMLKELLHKLGPVPAGHGIELLAFSGLKVTPAAQLRERGLRRALAEHPQVHLRQLVYGEWNRERAYRQAQQLLKRYPKTQLVWSANDEMALGAMQAARELGRKPGTDLLFSGVNSSPEALQALIDGKLSVLEAGHFTLGGWALVALHDDALGLDARRLGGPDWQLSLFQEGHHHHHH”, the “soluble on expression in E. coli” value is on record as “not soluble”. As for “MERITVTLGERSYPITIAAGLFNEPASFLPLKSGDQVMLVTNETLAPLYLDKVRGVLERAGVNVDSVILPDGEQYKSLTVLDTVFTALLKKPHGRDTTLVALGGGVIGDLTGFAAASYQRGVRFIQVPTTLLSQVDSSVGGKTAVNHPLGKNMIGAFYQPASVVVDLDCLKTLPARELTSGLAEVIKYGIILDADFFTWLEGNLDALLRLDGPAMAYCIRRCCELKAEVVAADEREAGLRALLNLGHTFGHAIEAEMGYGNWLHGEAVAAGIVMAARASERLGQFSSADTQRIIALLERAGLPVNGPCEMSAQDYLPHMLRDKKVLAGELRLVLPLAIGKSEVRGGVSHEVVLSAIADCQQA”, the entry is “not soluble”. For the sequence “MLIDMILAFSVAPTETPNNKAEMADVVAEAIRVVRESGLPNETNAMFTLIEGEWDEVMAVVKKATDAVLAVSPRASLVIKADIRPGYTGQLQQKVASVERVLAGDSES”, the “soluble on expression in E. coli” value is given as “not soluble”.

As to “MGSDKIHHHHHHMITENIKKEILRRIRNAEKEHNVKVLYAVESGSRAWGFESPNSDYDVRFIYAHPKDWYVSVDLEYKRDVIEYEIVDEIDINGWDIRKALQLFSKSNPAFVEWIQSSIVYVDDHSFAKGARQLLDTVYSVEKGIYHYRSMAKTNYRGYLKEEIVPIKKYFYVLRPLLSIMWLEKYQKPAPIEFVKLRTLIPTGSTIDQAISDLLERKKRSLEKEYAPAVPVLNAFIESELDRLENYQDSPQRNSSHMESLNSLFRVSIS”, the “soluble on expression in E. coli” value is “not soluble”. In the case of “MNDELKNKSGKVKVMYVRSDDDSDKRTHNPRTGKGGGRPAKSRTDGGRRPARDERNNQSRDRKHETSPWRTVSRAPGDETPEKVDHGGISGKSFIDPEVLRRQRAEETRVYGENACQALFQSRPDAIVRAWFIQSVTPRFKEALRWMAANRKAYHVVDEAELAKASGTEHHGGVCFLIKKRNGTTVKQWVKQAADQDCVLALEDVANPHNLGGMMRSCAHFGVKGVVVQDAALLESGAAIRTAEGGAEHVQPITGESIVDVLDDFRQAGYTVVTTSSDRGQALFSTTLPEKMVLVLGREYDYLPEAAREPDDLCVKINGTGNVESLNVSVATGVLLAEWWRQNKA”, the “soluble on expression in E. coli” value is listed as “not soluble”.

With “MGSDKIHHHHHHMNTKKESALSFPSAGIESFGERLKELMGDESLRAFANAIDTSEGGVRKWFTQSTMPSFDKMVRIARRYNVNLEWLCTGEGPKFPGETAAYESVICKTEEFSEEYALIDGYHTQVSTGHGAQWDNERVRRKLAFRSKWLRYRGLQPENLRVVFAKGDSMEPTIHSGDSILVDITDANLSDGSIFVLRIGDDLFAKRVQVHIDGSITIISDNKEYREQRVPVAELGLLSVVGKVVWIGKDVK”, the “soluble on expression in E. coli” value is recorded as “not soluble”. As for “MERYPPIADHGLVGDLQTAALVSSQGVIDWFAAPRFDSPSIFASLLDHDGGGHFLLAPEHPEGTWRQLYYPDTGVVVTRFMSPDGVGEIIDYMPVLPGPTASDRHSLVRIVRSVRGTVRFRLVCRPRFDYLEHHHHHH”, the entry is “not soluble”; as for “MGSDKIHHHHHHMRIILYTGKGGVGKTSISAATALQSAKQGLKTLVMSTDPAHSLGDSFGIKLSSEPLEIRENLWAQEINTIYEMEKGWGKLQKYITLLFTSKAADDITTEELTMFPGMEDLISLLRVLDYYKQNTYDVIIIDCAPTGETLAMLSFPDMLGWWMEKLFPIKRKVLKVVRPVAQPLLGVPLPTDDIMDELTNTLEQLGEMRDILSNRDVTSIRIVVNPEKMVIKEAQRSFTYLNLYDYNVDAIMINRVIPNTVIDPYFQAWKDTQKKYKTLIQNSFDPLPIYEAPMFEQEVVGLPMLERVGDALFKEDYCPTEVKFNGRTQYVKKDGDEYIFVLSIPFSNKSELALNQKGDELIIRAGSVKRNITLPKTLTHLSIQGAKFEDDVLNIRFGGVVHA”, “not soluble”; as for “MDVSFEFEHYQVRLIKSSDAVTIANYFMRNRHHLAPWEPKRSHAFFTPEGWKQRLLQLVELHKHNLAFYFVVVDKNEHKIIGTVSYSNITRFPFHAGHVGYSLDSEYQGKGIMRRAVNVTIDWMFKAQNLHRIMAAYIPRNEKSAKVLAALGFVKEGEAKKYLYINGAWEDHILTSKINDDWKP”, “soluble”. With “MPAPLSIVIPTLQAESSLPRLLEALIEGLPNGLIREVIVSDGGSQDATRAIAEAAGAQVLNGPPSRGGQLRHGCDAARGDWLLVLHADTLPDPGWAGVVADHIAAREDAACFRLAFRARGPGAAWVAGWANLRTRLFGLPYGDQGLLIRRRDYQTAGGYPDQLLMEDVHLVRALSRAPVLLPHRALTGAERYLRSGWLRRGARNLWTLMRYFAGTDPEALARAYRRLEHHHHHH”, the “soluble on expression in E. coli” value was “not soluble”.

Regarding “MAAECATQRAPGSVVELLGKSYPQDDHSNLTRKVLTRVGRNLHNQQHHPLWLIKERVKEHFYKQYVGRFGTPLFSVYDNLSPVVTTWQNFDSLLIPADHPSRKKGDNYYLNRTHMLRAHTSAHQWDLLHAGLDAFLVVGDVYRRDQIDSQHYPIFHQLEAVRLFSKHELFAGIKDGESLQLFEQSSRSAHKQETHTMEAVKLVEFDLKQTLTRLMAHLFGDELEIRWVDCYFPFTHPSFEMEINFHGEWLEVLGCGVMEQQLVNSAGAQDRIGWAFGLGLERLAMILYDIPDIRLFWCEDERFLKQFCVSNINQKVKFQPLSKYPAVINDISFWLPSENYAENDFYDLVRTIGGDLVEKVDLIDKFVHPKTHKTSHCYRITYRHMERTLSQREVRHIHQALQEAAVQLLGVEGRF”, the “soluble on expression in E. coli” value is on record as “soluble”.

With “MGSDKIHHHHHHMKRSEKKSMSSALKNGIMERTQPEKVVQMQGTADLSTSKLGTKKYWDELYALELENFRRNPQDTGDCWFSDSDAEQKMIDFLVDNIGAYRISENASVVDLGTGNGHMLFELHQTEFQGKLVGIDYSEESVKLASNIAEATGVDNFISFQQADIFSGDWKPGKYDIVLDKGTLDAISLSGMKINGKLDVVDVYAGVVERILKKDGIFLITSCNFTQDELVKIIETDNLKMWKTIKYPVFQFGGVQGATICSVAFVKQN”, the “soluble on expression in E. coli” value is “not soluble”. As for “MGSDKIHHHHHHMVEIKKICCIGAGYVGGPTCSVIAHMCPEIRVTVVDVNEARINAWNSPTLPIYEPGLKEVVESCRGKNLFFSTNIDDAIREADLVFISVNTPTKTYGMGKGRAADLKYIEACARRIVQNSNGYKIVTEKSTVPVRAAESIRRIFDANTKPNLNLQVLSNPEFLAEGTAIKDLKNPDRVLIGGDETPEGQKAVRALCAVYEHWVPKEKILTTNTWSSELSKLAANAFLAQRISSINSISALCEATGADVEEVATAIGMDQRIGNKFLKASVGFGGSCFQKDVLNLVYLCEALNLPEVARYWQQVIDMNDYQRRRFASRIIDSLFNTVTDKKIAILGFAFKKDTGDTRESSSIYISKYLMDEGAHLHIYDPKVPREQIVVDLSHPGVSADDQVSRLVTISKDPYEACDGAHALVICTEWDMFKELDYERIHKKMLKPAFIFDGRRVLDGLHSELQTIGFQIETIGKKVSSKRIPYTPGEIPKFSLQDPPNKKPKV”, the entry is “not soluble”; as for “MAHHHHHHMSWQGPRVLVVGENQWEREAVSRALLNLAVRHGSPYGICYVDLDVAMPMVGCPGTVSAAFVEEPVTAPEDFGVMMPLTFFHGTASVTSATRKRYLDLCVCAAQAATSLGFANSKFEAGGFLIHSLSPSTEIQHDVLSDVLSIFAVTHVVVTGADRELEKFLYNAVLGRTVHFVRLPKLAGVQSPSSAGAEQRRRAQLERYFFGTPRTPLVPVRGVARMSELVLLHAETFEPLSWREVPDLGLAAVVWADTAASAAEANVAGFVALLEVGKQFVSFLAPSGGELPKPFLVVSPSLHLPRELVMPLPVT”, “not soluble”; as for “MDQAELSIEQVLKRDIPWETYMNTKLVSAKGLQLLRRYDKKPESARAQLLDEDGPAYVHLFVSILRDIFKEETVEYVLALIYEMLSANPTRARLFHDESLANEDTYEPFLRLLWKGNWFIQEKSCKILAWIISARPKAGNAVIGNGIDDVLKGLVEWLCAQLKQPSHPTRGVPIAISCLSSLLKEPVVRSSFVQADGVKLLVPLISPASTQQSIQLLYETCLCIWLLSYYEPAIEYLATSRTMQRLTEVVKHSTKEKVVRVVILTFRNLLPKGTFGAQMVDLGLPHIIHSLKTQAWSDEDLLDALNQLEEGLKDKIKKLSSFDKYKQEVLLGHLDWNPMHKETNFWRENVTCFEENDFQILRVLLTILDTSSDPRSLAVACFDISQFIQYHAAGRVIVADLKAKERVMKLINHENAEVTKNAILCIQRLLLGAKYASFLQA”, “soluble”.
